Results from PMC6270943 (2014).

Molecular target: T1, antisense peptide IPPKYW
T1 chain: IPPKYW
Test: tryptophan fluorescence titration

Kd: 19 µM
Binder: YGGFM [Met-enkephalin]
